Test results from patent US20150344570A1 (published 2015).

T1: FcγRIIb extracellular domain with C-terminal His tag (human, UniProt P31994 43-217)
T1 construct: extracellular domain; also called FcgRIIb; 2b
T1 sequence (looked up): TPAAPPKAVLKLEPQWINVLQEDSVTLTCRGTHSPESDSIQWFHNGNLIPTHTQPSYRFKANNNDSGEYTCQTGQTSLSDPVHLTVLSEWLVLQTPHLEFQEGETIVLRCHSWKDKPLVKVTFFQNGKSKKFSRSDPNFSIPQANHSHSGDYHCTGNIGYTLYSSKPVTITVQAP

B1: GpH7-A5/GpH7-B3 variant S298_03V/GpL16-k0 (antibody, human IgG1, kappa)
heavy 1: not shown
heavy 2: not shown
light: DIVMTQSPLSLPVTPGEPASISCQASESLVHSNRNTYLHWYLQKPGQSPQLLIYKVSNRFSGVPDRFSGSGSGTDFTLKISRVEAEDVGVYYCSQNTHVPPTFGQGTKVEIERTVAAPSVFIFPPSDEQLKSGTASVVCLLNNFYPREAKVQWKVDNALQSGNSQESVTEQDSKDSTYSLSSTLTLSKADYEKHKVYACEVTHQGLSSPVTKSFNRGEC
notes: Heterodimerized anti-glypican-3 IgG1; alteration only in the GpH7-B3 chain, EU numbering; also called He Ab
B2: GpH7-A5/GpH7-B3 variant S298_04F/GpL16-k0 (antibody, human IgG1, kappa)
heavy 1: not shown
heavy 2: not shown
light: B1 light
notes: as for B1
B3: GpH7-A5/GpH7-B3 variant S298_05P/GpL16-k0 (antibody, human IgG1, kappa)
heavy 1: not shown
heavy 2: not shown
light: B1 light
notes: as for B1
B4: GpH7-A5/GpH7-B3 variant S298_07I/GpL16-k0 (antibody, human IgG1, kappa)
heavy 1: not shown
heavy 2: not shown
light: B1 light
notes: as for B1
B5: GpH7-A5/GpH7-B3 variant Y296_01G/GpL16-k0 (antibody, human IgG1, kappa)
heavy 1: not shown
heavy 2: not shown
light: B1 light
notes: as for B1
B6: GpH7-A5/GpH7-B3 variant Y296_02A/GpL16-k0 (antibody, human IgG1, kappa)
heavy 1: not shown
heavy 2: not shown
light: B1 light
notes: as for B1
B7: GpH7-A5/GpH7-B3 variant Y296_03V/GpL16-k0 (antibody, human IgG1, kappa)
heavy 1: not shown
heavy 2: not shown
light: B1 light
notes: as for B1
B8: GpH7-A5/GpH7-B3 variant Y296_05P/GpL16-k0 (antibody, human IgG1, kappa)
heavy 1: not shown
heavy 2: not shown
light: B1 light
notes: as for B1
B9: GpH7-A5/GpH7-B3 variant Y296_07I/GpL16-k0 (antibody, human IgG1, kappa)
heavy 1: not shown
heavy 2: not shown
light: B1 light
notes: as for B1
B10: GpH7-A5/GpH7-B3 variant Y296_08L/GpL16-k0 (antibody, human IgG1, kappa)
heavy 1: not shown
heavy 2: not shown
light: B1 light
notes: as for B1
B11: GpH7-A5/GpH7-B3 variant Y296_11K/GpL16-k0 (antibody, human IgG1, kappa)
heavy 1: not shown
heavy 2: not shown
light: B1 light
notes: as for B1
B12: GpH7-A5/GpH7-B3 variant Y296_12R/GpL16-k0 (antibody, human IgG1, kappa)
heavy 1: not shown
heavy 2: not shown
light: B1 light
notes: as for B1
B13: GpH7-A5/GpH7-B3 variant Y296_13S/GpL16-k0 (antibody, human IgG1, kappa)
heavy 1: not shown
heavy 2: not shown
light: B1 light
notes: as for B1
B14: GpH7-A5/GpH7-B3 variant Y296_19Q/GpL16-k0 (antibody, human IgG1, kappa)
heavy 1: not shown
heavy 2: not shown
light: B1 light
notes: as for B1

The binders below were run against T2, FcγRIa extracellular domain with C-terminal His tag (human, UniProt P12314 16-292) (assay: SPR (Biacore); He/Con_1a divided by He/Con_2b (FcγRIa binding over FcγRIIb binding)).
T2 construct: extracellular domain; also called FcgRI; 1a
T2 sequence (P12314 16-292): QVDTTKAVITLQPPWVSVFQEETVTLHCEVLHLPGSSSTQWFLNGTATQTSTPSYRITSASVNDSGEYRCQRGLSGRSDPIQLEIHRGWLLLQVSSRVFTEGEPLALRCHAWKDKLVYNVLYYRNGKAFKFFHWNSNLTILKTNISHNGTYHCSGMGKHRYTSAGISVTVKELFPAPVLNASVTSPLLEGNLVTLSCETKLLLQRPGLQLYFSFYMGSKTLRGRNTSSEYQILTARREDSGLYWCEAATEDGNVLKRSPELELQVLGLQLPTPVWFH
Description: (§1) The heterodimerized antibodies He Abs in which one of the H chains was introduced with an alteration were assayed for their binding activities to each activating FcγR and inhibitory FcγR according to the method described in Example 4. […] The activating FcγRs in FIGS. 26, 27, 28, and 29 are FcγRIa, FcγRIIa (R), FcγRIIa (H), and FcγRIIIa, respectively.
(§2) Analysis of interaction between objective antibody and the FcγR was carried out using Biacore T100 (GE Healthcare). HBS-EP+ (GE Healthcare) was used as the running buffer, and the measurement temperature was set to 25° C. Chips produced by immobilizing the antigen peptide by the amine coupling method to a Series S Sencor Chip CM5 (GE Healthcare), or alternatively, chips produced by allowing preliminarily biotinylated antigen peptides to interact with and immobilize onto a Series S Sensor Chip SA (certified) (GE Healthcare) were used. Antibodies of interest were captured onto an antigen peptide-immobilized chip, and allowed to interact to each FcγR diluted with running buffer. To regenerate and repeatedly use the chip, the antibodies captured on the chip were washed off by reacting 10 mM glycine-HCl, pH 1.5.

Binder	He_1a/2b (Ia/IIb) [ratio]
B1	1.7
B2	1.67
B3	7.7
B4	1.52
B5	1.29
B6	1.26
B7	1.31
B8	2.61
B9	1.24
B10	1.26
B11	1.44
B12	1.34
B13	1.22
B14	1.25

Each binder was assayed against T2, FcγRIa extracellular domain with … (assay: SPR (Biacore), antibody captured via antigen peptide, FcγR as analyte; relative binding).
Description: as §1, §2

Binder	He/Con_1a
B1	110 % of GpH7-A5/GpH7-B3/GpL16-k0 (=100)
B2	109 % of GpH7-A5/GpH7-B3/GpL16-k0 (=100)
B3	91.6 % of GpH7-A5/GpH7-B3/GpL16-k0 (=100)
B4	107 % of GpH7-A5/GpH7-B3/GpL16-k0 (=100)
B5	103 % of GpH7-A5/GpH7-B3/GpL16-k0 (=100)
B6	103 % of GpH7-A5/GpH7-B3/GpL16-k0 (=100)
B7	104 % of GpH7-A5/GpH7-B3/GpL16-k0 (=100)
B8	95.6 % of GpH7-A5/GpH7-B3/GpL16-k0 (=100)
B9	104 % of GpH7-A5/GpH7-B3/GpL16-k0 (=100)
B10	104 % of GpH7-A5/GpH7-B3/GpL16-k0 (=100)
B11	105 % of GpH7-A5/GpH7-B3/GpL16-k0 (=100)
B12	106 % of GpH7-A5/GpH7-B3/GpL16-k0 (=100)
B13	105 % of GpH7-A5/GpH7-B3/GpL16-k0 (=100)
B14	112 % of GpH7-A5/GpH7-B3/GpL16-k0 (=100)

What follows are binders tested against T1, FcγRIIb extracellular domain with … in the same assay as above.
Description: as §1, §2

Binder	He/Con_2b
B1	64.5 % of GpH7-A5/GpH7-B3/GpL16-k0 (=100)
B2	65.4 % of GpH7-A5/GpH7-B3/GpL16-k0 (=100)
B3	11.9 % of GpH7-A5/GpH7-B3/GpL16-k0 (=100)
B4	70.6 % of GpH7-A5/GpH7-B3/GpL16-k0 (=100)
B5	79.3 % of GpH7-A5/GpH7-B3/GpL16-k0 (=100)
B6	82 % of GpH7-A5/GpH7-B3/GpL16-k0 (=100)
B7	79.3 % of GpH7-A5/GpH7-B3/GpL16-k0 (=100)
B8	36.6 % of GpH7-A5/GpH7-B3/GpL16-k0 (=100)
B9	84.3 % of GpH7-A5/GpH7-B3/GpL16-k0 (=100)
B10	82.3 % of GpH7-A5/GpH7-B3/GpL16-k0 (=100)
B11	72.8 % of GpH7-A5/GpH7-B3/GpL16-k0 (=100)
B12	79.5 % of GpH7-A5/GpH7-B3/GpL16-k0 (=100)
B13	86.3 % of GpH7-A5/GpH7-B3/GpL16-k0 (=100)
B14	89.3 % of GpH7-A5/GpH7-B3/GpL16-k0 (=100)
